Data reported in the supplement of paper PMC5998384.

What was measured:
[1] = system: HeLa Kyoto; assay: solubility in G1/S (NP-40 vs SDS abundance) (log2 ratio); higher = more soluble; details: cell cycle stage: G1/S
[2] = system: HeLa Kyoto; assay: melting temperature (median over replicates), in situ; higher = more thermally stable
[3] = system: HeLa Kyoto; assay: solubility change mitosis vs G1/S (difference of NP-40 vs SDS log2 ratios) (log2 ratio difference); higher = more soluble in mitosis
[4] = system: HeLa Kyoto; assay: thermal stability score vs G1/S (z-score of summed log2 fold changes over temperatures); higher = more thermally stable than in G1/S
[5] = cell cycle stage: early G1 (4.5 h after nocodazole release)
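For melting temperature (median over replicates), in situ in this document: HeLa Kyoto cells synchronized by double thymidine or nocodazole block, proteins quantified by TMT10plex mass spectrometry, three independent biological replicates.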
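For solubility change mitosis vs G1/S (difference of NP-40 vs SDS log2 ratios) in this document: synchronized HeLa Kyoto cells (double thymidine block for G1/S, nocodazole release for mitosis), protein amounts in NP-40 versus SDS lysates quantified by mass spectrometry, three biological replicates.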
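For solubility in G1/S (NP-40 vs SDS abundance) in this document: HeLa Kyoto cells arrested at G1/S by double thymidine block, proteins quantified by TMT10plex mass spectrometry in mild NP-40 versus SDS extracts, three biological replicates.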
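For thermal stability score vs G1/S (z-score of summed log2 fold changes over temperatures) in this document: synchronized HeLa Kyoto cells, proteins quantified by TMT10plex mass spectrometry, three biological replicates, mitosis taken 0.5 h after nocodazole release, G1/S directly after double thymidine block.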

| Substance | solubility in G1/S (log2) [1] | melting temperature ([2]; cell cycle stage: G1/S) [°C] | melting temperature ([2]; cell cycle stage: mitosis) [°C] | solubility change mitosis (log2) [3] | thermal stability score [4, 5] | thermal stability score ([4]; cell cycle stage: mitosis) |
| --- | --- | --- | --- | --- | --- | --- |
| MWRLRRAAVACEVCQSLVKHSSGIKGSLPLQKLHLVSRSIYHSHHPTLKLQRPQLRTSFQQFSSLTNLPLRKLKFSPIKYGYQPRRNFWPARLATRLLKLRYLILGSAVGGGYTAKKTFDQWKDMIPDLSEYKWIVPDIVWEIDEYIDFEKIRKALPSSEDLVKLAPDFDKIVESLSLLKDFFTSGSPEETAFRATDRGSESDKHFRKVSDKEKIDQLQEELLHTQLKYQRILERLEKENKELRKLVLQKDDKGIHHRKLKKSLIDMYSEVLDVLSDYDASYNTQDHLPRVVVVGDQSAGKTSVLEMIAQARIFPRGSGEMMTRSPVKVTLSEGPHHVALFKDSSREFDLTKEEDLAALRHEIELRMRKNVKEGCTVSPETISLNVKGPGLQRMVLVDLPGVINTVTSGMAPDTKETIFSISKAYMQNPNAIILCIQDGSVDAERSIVTDLVSQMDPHGRRTIFVLTKVDLAEKNVASPSRIQQIIEGKLFPMKALGYFAVVTGKGNSSESIEAIREYEEEFFQNSKLLKTSMLKAHQVTTRNLSLAVSDCFWKMVRESVEQQADSFKATRFNLETEWKNNYPRLRELDRNELFEKAKNEILDEVISLSQVTPKHWEEILQQSLWERVSTHVIENIYLPAAQTMNSGTFNTTVDIKLKQWTDKQLPNKAVEVAWETLQEEFSRFMTEPKGKEHDDIFDKLKEAVKEESIKRHKWNDFAEDSLRVIQHNALEDRSISDKQQWDAAIYFMEEALQARLKDTENAIENMVGPDWKKRWLYWKNRTQEQCVHNETKNELEKMLKCNEEHPAYLASDEITTVRKNLESRGVEVDPSLIKDTWHQVYRRHFLKTALNHCNLCRRGFYYYQRHFVDSELECNDVVLFWRIQRMLAITANTLRQQLTNTEVRRLEKNVKEVLEDFAEDGEKKIKLLTGKRVQLAEDLKKVREIQEKLDAFIEALHQEK [OPA1] | -0.149 | 51.3 | 51 | -0.0649 | 1.61 | 0.517 |
| MWRLVPPKLGRLSRSLKLAALGSLLVLMVLHSPSLLASWQRNELTDRRFLQLNKCPACFGTSWCRRFLNGQVVFEAWGRLRLLDFLNVKNVYFAQYGEPREGGRRRVVLKRLGSQRELAQLDQSICKRATGRPRCDLLQAMPRTEFARLNGDVRLLTPEAVEGWSDLVHCPSQRLLDRLVRRYAETKDSGSFLLRNLKDSERMQLLLTLAFNPEPLVLQSFPSDEGWPFAKYLGACGRMVAVNYVGEELWSYFNAPWEKRVDLAWQLMEIAEQLTNNDFEFALYLLDVSFDNFAVGPRDGKVIIVDAENVLVADKRLIRQNKPENWDVWYESKFDDCDKEACLSFSKEILCARATVDHNYYAVCQNLLSRHATWRGTSGGLLHDPPSEIAKDGRLEALLDECANPKKRYGRFQAAKELREYLAQLSNNVR [C3ORF58] | 0.0343 | 53 | 52.3 | -0.109 | -0.149 | -0.787 |
| MWRRKHPRTSGGTRGVLSGNRGVEYGSGRGHLGTFEGRWRKLPKMPEAVGTDPSTSRKMAELEEVTLDGKPLQALRVTDLKAALEQRGLAKSGQKSALVKRLKGALMLENLQKHSTPHAAFQPNSQIGEEMSQNSFIKQYLEKQQELLRQRLEREAREAAELEEASAESEDEMIHPEGVASLLPPDFQSSLERPELELSRHSPRKSSSISEEKGDSDDEKPRKGERRSSRVRQARAAKLSEGSQPAEEEEDQETPSRNLRVRADRNLKTEEEEEEEEEEEEDDEEEEGDDEGQKSREAPILKEFKEEGEEIPRVKPEEMMDERPKTRSQEQEVLERGGRFTRSQEEARKSHLARQQQEKEMKTTSPLEEEEREIKSSQGLKEKSKSPSPPRLTEDRKKASLVALPEQTASEEETPPPLLTKEASSPPPHPQLHSEEEIEPMEGPAPAVLIQLSPPNTDADTRELLVSQHTVQLVGGLSPLSSPSDTKAESPAEKVPEESVLPLVQKSTLADYSAQKDLEPESDRSAQPLPLKIEELALAKGITEECLKQPSLEQKEGRRASHTLLPSHRLKQSADSSSSRSSSSSSSSSRSRSRSPDSSGSRSHSPLRSKQRDVAQARTHANPRGRPKMGSRSTSESRSRSRSRSRSASSNSRKSLSPGVSRDSSTSYTETKDPSSGQEVATPPVPQLQVCEPKERTSTSSSSVQARRLSQPESAEKHVTQRLQPERGSPKKCEAEEAEPPAATQPQTSETQTSHLPESERIHHTVEEKEEVTMDTSENRPENDVPEPPMPIADQVSNDDRPEGSVEDEEKKESSLPKSFKRKISVVSATKGVPAGNSDTEGGQPGRKRRWGASTATTQKKPSISITTESLKSLIPDIKPLAGQEAVVDLHADDSRISEDETERNGDDGTHDKGLKICRTVTQVVPAEGQENGQREEEEEEKEPEAEPPVPPQVSVEVALPPPAEHEVKKVTLGDTLTRRSISQQKSGVSITIDDPVRTAQVPSPPRGKISNIVHISNLVRPFTLGQLKELLGRTGTLVEEAFWIDKIKSHCFVTYSTVEEAVATRTALHGVKWPQSNPKFLCADYAEQDELDYHRGLLVDRPSETKTEEQGIPRPLHPPPPPPVQPPQHPRAEQREQERAVREQWAEREREMERRERTRSEREWDRDKVREGPRSRSRSRDRRRKERAKSKEKKSEKKEKAQEEPPAKLLDDLFRKTKAAPCIYWLPLTDSQIVQKEAERAERAKEREKRRKEQEEEEQKEREKEAERERNRQLEREKRREHSRERDRERERERERDRGDRDRDRERDRERGRERDRRDTKRHSRSRSRSTPVRDRGGRR [ACIN1] | -1.35 | 49.6 | 50.8 | 0.887 | -3.76 | -1.15 |
| MWTLVSWVALTAGLVAGTRCPDGQFCPVACCLDPGGASYSCCRPLLDKWPTTLSRHLGGPCQVDAHCSAGHSCIFTVSGTSSCCPFPEAVACGDGHHCCPRGFHCSADGRSCFQRSGNNSVGAIQCPDSQFECPDFSTCCVMVDGSWGCCPMPQASCCEDRVHCCPHGAFCDLVHTRCITPTGTHPLAKKLPAQRTNRAVALSSSVMCPDARSRCPDGSTCCELPSGKYGCCPMPNATCCSDHLHCCPQDTVCDLIQSKCLSKENATTDLLTKLPAHTVGDVKCDMEVSCPDGYTCCRLQSGAWGCCPFTQAVCCEDHIHCCPAGFTCDTQKGTCEQGPHQVPWMEKAPAHLSLPDPQALKRDVPCDNVSSCPSSDTCCQLTSGEWGCCPIPEAVCCSDHQHCCPQGYTCVAEGQCQRGSEIVAGLEKMPARRASLSHPRDIGCDQHTSCPVGQTCCPSLGGSWACCQLPHAVCCEDRQHCCPAGYTCNVKARSCEKEVVSAQPATFLARSPHVGVKDVECGEGHFCHDNQTCCRDNRQGWACCPYRQGVCCADRRHCCPAGFRCAARGTKCLRREAPRWDAPLRDPALRQLL [GRN] | 0.135 | 54.9 | 60.5 | -0.134 | -2.57 | -3.69 |
| MYATDSRGHSPAFLQPQNGNSRHPSGYVPGKVVPLRPPPPPKSQASAKFTSIRREDRATFAFSPEEQQAQRESQKQKRHKNTFICFAITSFSFFIALAIILGISSKYAPDENCPDQNPRLRNWDPGQDSAKQVVIKEGDMLRLTSDATVHSIVIQDGGLLVFGDNKDGSRNITLRTHYILIQDGGALHIGAEKCRYKSKATITLYGKSDEGESMPTFGKKFIGVEAGGTLELHGARKASWTLLARTLNSSGLPFGSYTFEKDFSRGLNVRVIDQDTAKILESERFDTHEYRNESRRLQEFLRFQDPGRIVAIAVGDSAAKSLLQGTIQMIQERLGSELIQGLGYRQAWALVGVIDGGSTSCNESVRNYENHSSGGKALAQREFYTVDGQKFSVTAYSEWIEGVSLSGFRVEVVDGVKLNLLDDVSSWKPGDQIVVASTDYSMYQAEEFTLLPCSECSHFQVKVKETPQFLHMGEIIDGVDMRAEVGILTRNIVIQGEVEDSCYAENQCQFFDYDTFGGHIMIMKNFTSVHLSYVELKHMGQQQMGRYPVHFHLCGDVDYKGGYRHATFVDGLSIHHSFSRCITVHGTNGLLIKDTIGFDTLGHCFFLEDGIEQRNTLFHNLGLLTKPGTLLPTDRNNSMCTTMRDKVFGNYIPVPATDCMAVSTFWIAHPNNNLINNAAAGSQDAGIWYLFHKEPTGESSGLQLLAKPELTPLGIFYNNRVHSNFKAGLFIDKGVKTTNSSAADPREYLCLDNSARFRPHQDANPEKPRVAALIDRLIAFKNNDNGAWVRGGDIIVQNSAFADNGIGLTFASDGSFPSDEGSSQEVSESLFVGESRNYGFQGGQNKYVGTGGIDQKPRTLPRNRTFPIRGFQIYDGPIHLTRSTFKKYVPTPDRYSSAIGFLMKNSWQITPRNNISLVKFGPHVSLNVFFGKPGPWFEDCEMDGDKNSIFHDIDGSVTGYKDAYVGRMDNYLIRHPSCVNVSKWNAVICSGTYAQVYVQTWSTQNLSMTITRDEYPSNPMVLRGINQKAAFPQYQPVVMLEKGYTIHWNGPAPRTTFLYLVNFNKNDWIRVGLCYPSNTSFQVTFGYLQRQNGSLSKIEEYEPVHSLEELQRKQSERKFYFDSSTGLLFLYLKAKSHRHGHSYCSSQGCERVKIQAATDSKDISNCMAKAYPQYYRKPSVVKRMPAMLTGLCQGCGTRQVVFTSDPHKSYLPVQFQSPDKAETQRGDPSVISVNGTDFTFRSAGVLLLVVDPCSVPFRLTEKTVFPLADVSRIEEYLKTGIPPRSIVLLSTRGEIKQLNISHLLVPLGLAKPAHLYDKGSTIFLGFSGNFKPSWTKLFTSPAGQGLGVLEQFIPLQLDEYGCPRATTVRRRDLELLKQASKAH [TMEM2] | 0.114 | 55.3 | 55.5 | -0.018 | -1.5 | -0.419 |
| MYCBP2 | -0.39 | 51.4 | 50.8 | 0.0594 | -0.686 | -0.306 |
| MYGSARSVGKVEPSSQSPGRSPRLPRSPRLGHRRTNSTGGSSGSSVGGGSGKTLSMENIQSLNAAYATSGPMYLSDHENVGSETPKSTMTLGRSGGRLPYGVRMTAMGSSPNIASSGVASDTIAFGEHHLPPVSMASTVPHSLRQARDNTIMDLQTQLKEVLRENDLLRKDVEVKESKLSSSMNSIKTFWSPELKKERALRKDEASKITIWKEQYRVVQEENQHMQMTIQALQDELRIQRDLNQLFQQDSSSRTGEPCVAELTEENFQRLHAEHERQAKELFLLRKTLEEMELRIETQKQTLNARDESIKKLLEMLQSKGLSAKATEEDHERTRRLAEAEMHVHHLESLLEQKEKENSMLREEMHRRFENAPDSAKTKALQTVIEMKDSKISSMERGLRDLEEEIQMLKSNGALSTEEREEEMKQMEVYRSHSKFMKNKVEQLKEELSSKEAQWEELKKKAAGLQAEIGQVKQELSRKDTELLALQTKLETLTNQFSDSKQHIEVLKESLTAKEQRAAILQTEVDALRLRLEEKETMLNKKTKQIQDMAEEKGTQAGEIHDLKDMLDVKERKVNVLQKKIENLQEQLRDKEKQMSSLKERVKSLQADTTNTDTALTTLEEALAEKERTIERLKEQRDRDEREKQEEIDNYKKDLKDLKEKVSLLQGDLSEKEASLLDLKEHASSLASSGLKKDSRLKTLEIALEQKKEECLKMESQLKKAHEAALEARASPEMSDRIQHLEREITRYKDESSKAQAEVDRLLEILKEVENEKNDKDKKIAELERQVKDQNKKVANLKHKEQVEKKKSAQMLEEARRREDNLNDSSQQLQDSLRKKDDRIEELEEALRESVQITAEREMVLAQEESARTNAEKQVEELLMAMEKVKQELESMKAKLSSTQQSLAEKETHLTNLRAERRKHLEEVLEMKQEALLAAISEKDANIALLELSSSKKKTQEEVAALKREKDRLVQQLKQQTQNRMKLMADNYEDDHFKSSHSNQTNHKPSPDQIIQPLLELDQNRSKLKLYIGHLTTLCHDRDPLILRGLTPPASYNLDDDQAAWENELQKMTRGQLQDELEKGERDNAELQEFANAILQQIADHCPDILEQVVNALEESS [ERC1] | 0.626 | 48.4 | 50.1 | 0.00205 | 1.35 | 1.65 |
| MYLQVETRTSSRLHLKRAPGIRSWSLLVGILSIGLAAAYYSGDSLGWKLFYVTGCLFVAVQNLEDWEEAIFDKSTGKVVLKTFSLYKKLLTLFRAGHDQVVVLLHDVRDVSVEEEKVRYFGKGYMVVLRLATGFSHPLTQSAVMGHRSDVEAIAKLITSFLELHCLESPTELSQSSDSEAGDPASQS [C17ORF62] | -0.124 | 55 | 55.1 | -0.128 | -1.46 | -0.834 |
| MYO5A | -0.679 | 51.1 | 49.6 | 0.167 | 0.0646 | -0.152 |
